Assay results: the supplement of paper PMC7877785
± gives the uncertainty stated by the source.

Experiment: self-splicing fitness, log relative to wild type (ln ratio); higher = more splicing; Tetrahymena group I intron in knt gene, E. coli kanamycin selection, DiMSum; sequences stand for … in CUCUCU…GGAGGGAAAAGUUAUCAGGCAUGCACCUGGUAGCUAGUCUUUAAACCAAUAGAUUGCAUCGGUUUAAAAGGCAAGACCGUCAAAUUGCGGGAAAGGGGUCAACAGCCGUUCAGUACCAAGUCUCAGGGGAAACUUUGAGAUGGCCUUGCAAAGGGUAUGGUAAUAAGCUGACGGACAUGGUCCUAACCACGCAGCCAAGUCCUAAGUCAACAGAUCUUCUGUUGAUAUGGAUGCAGUUCACAGACUAAAUGUCGGUCGGGGAAGAUGUAUUCUUCUCAUAAGAUAUAGUCGGACCUCUCCUUAAUGGGAGCUAGCGGAUGAAGUGAUGCAACACUGGAGCCGCUGGGAACUAAUUUGUAUGCGAAAGUAUAUUGAUUAGUUUUGGAGUACUCGUGGUCG
Method in brief: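 Pooled colonies went to amplicon sequencing on an Illumina HiSeq 2500 after six replicate transformations. The plates were LB agar with 100 μg/mL carbenicillin, 50 μM IPTG and 0.2% rhamnose, with or without 25 μg/mL kanamycin, incubated overnight at 37°C or 30°C. The E. coli BL21(DE3) library had all eight P1ex-region intron nucleotides randomised, the intron placed in the knt kanamycin-resistance gene on pET-22b(+). DiMSum fitness is the error-weighted combination of replicate fold changes, kanamycin against none, normalised to wild type.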

Row | Sequence | self-splicing fitness (ln) (30 °C) | self-splicing fitness (ln) (37 °C)
1 | AUUGAGCAAUAUUACGAUAC | -3.01 ± 0.42 | -1.65 ± 0.34
2 | AGCCAGCAAUAUUACGAAGG | -3.89 ± 0.41 | -2.92 ± 0.31
3 | GUUUAGCAAUAUUACGGUGU | -1.95 ± 0.14 | -1.38 ± 0.13
4 | UAUAAGCAAUAUUACGGCUC | -1.1 ± 0.17 | -0.161 ± 0.2
5 | GGGAAGCAAUAUUACGGGCG | -1.14 ± 0.13 | -0.362 ± 0.15
6 | UUAGAGCAAUAUUACGUCCA | -1.31 ± 0.22 | -1.71 ± 0.37
7 | CGGGAGCAAUAUUACGAAUU | -3.16 ± 0.34 | 
8 | AGUGAGCAAUAUUACGUCGC | -2.66 ± 0.41 | 
9 | ACGUAGCAAUAUUACGAUGA | -0.81 ± 0.091 | -0.268 ± 0.11
10 | ACGAAGCAAUAUUACGUGUG | -2.16 ± 0.054 | -0.817 ± 0.063
11 | AUAAAGCAAUAUUACGUGUC | -3.44 ± 0.14 | -3.4 ± 0.12
12 | UGGUAGCAAUAUUACGUGUC | -2.13 ± 0.46 | 
13 | AAGCAGCAAUAUUACGUGAC | -3.33 ± 0.14 | -2.38 ± 0.18
14 | CCGGAGCAAUAUUACGGUGA | -3.8 ± 0.31 | -2.29 ± 0.23
15 | AACUAGCAAUAUUACGGCUC | -0.662 ± 0.1 | -0.155 ± 0.11
16 | ACUAAGCAAUAUUACGUCCC | -1.43 ± 0.22 | -1.07 ± 0.32
17 | GACUAGCAAUAUUACGAAGG | -2.64 ± 0.17 | -1.87 ± 0.18
18 | AAAUAGCAAUAUUACGCCCU | 0.528 ± 0.16 | 0.336 ± 0.21
19 | GCCGAGCAAUAUUACGUUCC | -1.3 ± 0.2 | -0.589 ± 0.25
20 | GUAGAGCAAUAUUACGAUCU | -0.617 ± 0.12 | -0.114 ± 0.15
21 | GACGAGCAAUAUUACGGCGA | -2.12 ± 0.13 | -1.65 ± 0.13
22 | GAAAAGCAAUAUUACGGGUU | -1.27 ± 0.095 | -1.22 ± 0.12
23 | CGGAAGCAAUAUUACGGGAC | -3.5 ± 0.3 | 
24 | AAAUAGCAAUAUUACGGUAU | -1.69 ± 0.1 | -0.496 ± 0.12
25 | AUGAAGCAAUAUUACGUACC | -0.639 ± 0.067 | 0.16 ± 0.1

Row | Sequence | self-splicing fitness (ln) (30 °C) | self-splicing fitness (ln) (37 °C)
26 | AUGUAGCAAUAUUACGUUUG | -3.35 ± 0.23 | -2.72 ± 0.25
27 | GCCAAGCAAUAUUACGAAGG | -2.52 ± 0.13 | -2.15 ± 0.22
28 | AGUAAGCAAUAUUACGCAUC | -4.12 ± 0.29 | -1.48 ± 0.27
29 | ACAGAGCAAUAUUACGUAGU | -1.7 ± 0.14 | -2.87 ± 0.21
30 | UAGAAGCAAUAUUACGAACC | -2.02 ± 0.24 | -0.44 ± 0.3
31 | AUAUAGCAAUAUUACGUAGG | -3.06 ± 0.21 | -0.744 ± 0.16
32 | AUACAGCAAUAUUACGGCUU | 0.0959 ± 0.047 | 0.115 ± 0.057
33 | CUAUAGCAAUAUUACGUUUG | -1.38 ± 0.084 | -1.11 ± 0.11
34 | GUUUAGCAAUAUUACGAAUA | -1.58 ± 0.43 | -0.203 ± 0.3
35 | CCGGAGCAAUAUUACGUCUA |  | -1.85 ± 0.33
36 | UCGGAGCAAUAUUACGGAGA | -3.67 ± 0.21 | -1.49 ± 0.14
37 | UACGAGCAAUAUUACGGUCA | -1.39 ± 0.11 | -0.173 ± 0.11
38 | UGAAAGCAAUAUUACGAACU | -0.526 ± 0.088 | 0.612 ± 0.1
39 | AAACAGCAAUAUUACGCUAG | -1.39 ± 0.095 | -1.12 ± 0.13
40 | UACUAGCAAUAUUACGUCAC | -3.47 ± 0.26 | 
41 | CUUGAGCAAUAUUACGAUUA | -3.25 ± 0.26 | -2.36 ± 0.35
42 | AUGAAGCAAUAUUACGCAUA | -0.0747 ± 0.071 | -0.57 ± 0.082
43 | AUGAAGCAAUAUUACGGGAA | -1.83 ± 0.11 | -0.953 ± 0.14
44 | AGGCAGCAAUAUUACGAGAU | -3.01 ± 0.15 | -2.26 ± 0.2
45 | CACUAGCAAUAUUACGAAUA | -3.16 ± 0.37 | -2.33 ± 0.18
46 | CAUUAGCAAUAUUACGAGUG | -3.06 ± 0.15 | -2.83 ± 0.2
47 | CUUCAGCAAUAUUACGAGGA | -2.73 ± 0.26 | -1.64 ± 0.24
48 | GGUAAGCAAUAUUACGCCUG |  | -1.53 ± 0.33
49 | UCACAGCAAUAUUACGCGGG | -3.28 ± 0.12 | -2.56 ± 0.16
50 | ACCUAGCAAUAUUACGACGU | -0.142 ± 0.071 | 0.371 ± 0.084

Row | Sequence | self-splicing fitness (ln) (30 °C) | self-splicing fitness (ln) (37 °C)
51 | UUCGAGCAAUAUUACGCGGG | -3.26 ± 0.43 | -2.07 ± 0.32
52 | CACUAGCAAUAUUACGCCAA | -2.23 ± 0.16 | -2.89 ± 0.24
53 | UGAUAGCAAUAUUACGUCUA | 0.0941 ± 0.089 | -0.107 ± 0.094
54 | AUCGAGCAAUAUUACGAGCG | -2.35 ± 0.33 | -1.81 ± 0.27
55 | UACAAGCAAUAUUACGCCAG | -1.5 ± 0.12 | -1.81 ± 0.15
56 | UAACAGCAAUAUUACGCACA | -0.339 ± 0.069 | 0.114 ± 0.099
57 | UAUAAGCAAUAUUACGGUAC | -3.46 ± 0.3 | -2.23 ± 0.29
58 | CGGCAGCAAUAUUACGGAGC | -3.37 ± 0.14 | -3.3 ± 0.2
59 | UGUGAGCAAUAUUACGUAUA | -3.5 ± 0.4 | -2.03 ± 0.21
60 | CGCUAGCAAUAUUACGGUAC | -3.35 ± 0.23 | -1.95 ± 0.22
61 | GAAUAGCAAUAUUACGUGUA | -1.82 ± 0.12 | -1.49 ± 0.13
62 | UGUAAGCAAUAUUACGACGU | -1.29 ± 0.11 | -0.138 ± 0.13
63 | AGUAAGCAAUAUUACGUACG | -1.51 ± 0.11 | 0.135 ± 0.14
64 | AUAUAGCAAUAUUACGUCGG | -3.37 ± 0.33 | -2.03 ± 0.28
65 | CAGUAGCAAUAUUACGCACC | -2.03 ± 0.26 | -1.61 ± 0.43
66 | UCGCAGCAAUAUUACGUGUU | -2.49 ± 0.092 | -1.67 ± 0.11
67 | CUCCAGCAAUAUUACGGUGA | -2 ± 0.099 | -1.39 ± 0.11
68 | UCUAAGCAAUAUUACGAGUU | -2.94 ± 0.2 | -3.27 ± 0.28
69 | GUGUAGCAAUAUUACGGUUU | -1.04 ± 0.086 | -0.738 ± 0.11
70 | UAAAAGCAAUAUUACGGGAC | -3.16 ± 0.13 | -2.47 ± 0.19
71 | CAAAAGCAAUAUUACGGAUU | -3.49 ± 0.1 | -2.87 ± 0.1
72 | AAACAGCAAUAUUACGCACA | -0.828 ± 0.085 | 0.269 ± 0.1
73 | GAUGAGCAAUAUUACGUUGG | -3.65 ± 0.3 | -2.2 ± 0.32
74 | GCCCAGCAAUAUUACGUGUU | -0.583 ± 0.042 | -0.217 ± 0.054
75 | GUUUAGCAAUAUUACGGUCU | -1.44 ± 0.12 | -1.05 ± 0.13

Row | Sequence | self-splicing fitness (ln) (30 °C) | self-splicing fitness (ln) (37 °C)
76 | UAGCAGCAAUAUUACGGCCG | -0.163 ± 0.071 | 0.0112 ± 0.085
77 | AGCCAGCAAUAUUACGCGAU | -1.24 ± 0.14 | -2.93 ± 0.32
78 | CGACAGCAAUAUUACGCCUC | -2.24 ± 0.2 | -0.498 ± 0.2
79 | GGUGAGCAAUAUUACGAUGG |  | -1.2 ± 0.39
80 | UCGAAGCAAUAUUACGUCCA | -1.08 ± 0.13 | -0.411 ± 0.14
81 | GCGUAGCAAUAUUACGCUCG | -3.75 ± 0.32 | -1.08 ± 0.2
82 | AUCAAGCAAUAUUACGCUCU | -0.452 ± 0.07 | 0.0492 ± 0.082
83 | AAUCAGCAAUAUUACGAGAA | -1.61 ± 0.26 | -1.61 ± 0.2
84 | CCGGAGCAAUAUUACGGCGU | -4.4 ± 0.46 | -2.84 ± 0.26
85 | UUGUAGCAAUAUUACGAUCU |  | -2.38 ± 0.27
86 | CCACAGCAAUAUUACGCAGA | -3.08 ± 0.17 | -2.89 ± 0.16
87 | CAAUAGCAAUAUUACGUUUC | -4.35 ± 0.2 | -3.13 ± 0.19
88 | AAACAGCAAUAUUACGGCAG | -2.08 ± 0.099 | -0.063 ± 0.1
89 | CGAAAGCAAUAUUACGGCCG | -1.64 ± 0.14 | -0.462 ± 0.21
90 | GCCCAGCAAUAUUACGUCCA | -0.999 ± 0.09 | -1.18 ± 0.12
91 | UAAUAGCAAUAUUACGGUGC |  | -1.98 ± 0.36
92 | UCGUAGCAAUAUUACGCAUU | -3.24 ± 0.23 | -1.84 ± 0.15
93 | CGGGAGCAAUAUUACGGAGG | -3.27 ± 0.15 | -3.12 ± 0.3
94 | AGAGAGCAAUAUUACGAUAA |  | -2.71 ± 0.28
95 | UUGCAGCAAUAUUACGCAAA | -1.35 ± 0.21 | -2.35 ± 0.39
96 | GCUUAGCAAUAUUACGUGAU | -0.4 ± 0.065 | -0.482 ± 0.068
97 | UUUCAGCAAUAUUACGACGG | -1.02 ± 0.11 | 0.205 ± 0.17
98 | UUAUAGCAAUAUUACGUACU | -1.49 ± 0.18 | -1 ± 0.23
